This passage reports activity results from patent US20190330280, “TRANSCRIPTIONAL REGULATORY FUSION POLYPEPTIDE” (Astellas Pharma Inc., published 2019).

Common to all, as to test: cell_activity; human T cells, 3.0 nM protein added to medium, 24 h, 37 C
Common to all, as to conditions: tags: N-terminal GST, NTP cell-penetrating peptide, p300 core fusion

Series [1] deals with T1, NTP-TALE-TERT-1-p300CD (artificial, UniProt P14727 SEQ:29-906).
T1 chain: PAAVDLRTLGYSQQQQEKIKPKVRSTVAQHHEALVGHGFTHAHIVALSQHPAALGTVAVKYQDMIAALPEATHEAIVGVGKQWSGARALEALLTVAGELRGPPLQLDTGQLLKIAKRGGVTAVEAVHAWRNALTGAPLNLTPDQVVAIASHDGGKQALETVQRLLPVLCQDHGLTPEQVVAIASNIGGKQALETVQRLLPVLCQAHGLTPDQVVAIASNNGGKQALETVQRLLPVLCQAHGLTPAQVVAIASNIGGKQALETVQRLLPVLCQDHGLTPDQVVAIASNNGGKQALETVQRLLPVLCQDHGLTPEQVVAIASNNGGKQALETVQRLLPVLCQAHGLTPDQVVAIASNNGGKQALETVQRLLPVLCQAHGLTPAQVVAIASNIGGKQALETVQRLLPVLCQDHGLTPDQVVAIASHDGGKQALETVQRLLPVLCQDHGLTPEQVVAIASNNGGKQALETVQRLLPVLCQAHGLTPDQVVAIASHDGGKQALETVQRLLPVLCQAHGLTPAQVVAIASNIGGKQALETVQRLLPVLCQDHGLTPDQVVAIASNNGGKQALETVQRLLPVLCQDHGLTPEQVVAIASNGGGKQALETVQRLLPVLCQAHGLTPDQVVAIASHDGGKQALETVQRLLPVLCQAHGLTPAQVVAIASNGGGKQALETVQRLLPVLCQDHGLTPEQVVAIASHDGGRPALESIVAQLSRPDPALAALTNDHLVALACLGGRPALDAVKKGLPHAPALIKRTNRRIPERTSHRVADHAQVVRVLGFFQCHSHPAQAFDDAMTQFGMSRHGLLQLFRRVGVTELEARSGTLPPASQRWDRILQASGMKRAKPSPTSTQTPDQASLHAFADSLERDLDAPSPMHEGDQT
The procedure:
(§1) Each NTP-TALE-Activator (NTP-TALE-TERT-1-p300CD, NTP-TALE-TERT-2-p300CD and NTP-TALE-TERT-3-p300CD) targeting human TERT, prepared in Example 1 was dialyzed at 4° C. for 3 hours against OPTI-MEM medium (Thermo Fisher Scientific Inc.) in a microdialysis column (Tomy Seiko Co., Ltd.). The concentrations after purification were 40 nM NTP-TALE-TERT-1-p300CD, 55 nM NTP-TALE-TERT-2-p300CD, and 55 nM NTP-TALE-TERT-3-p300CD. Human T cells (obtained by separation from peripheral mononuclear cells in blood collected from a healthy person) were suspended in 100 μL of KBM550 (Kohjin Bio Co., Ltd.) and seeded in a 96-well plate at 0.5×10⁴ cells/well.
(§2) The obtained human T cells were cultured for 12 hours. Then, each NTP-TALE-Activator dialyzed as mentioned above was added at 3.0 nM (final concentration) to each well (as a result of conducting studies beforehand with a plurality of concentrations, the concentration at which each NTP-TALE-Activator was most responsive was 3.0 nM). Wells to which NTP-TALE-Activator was not added were prepared as a control. The plate was left standing for 24 hours in an incubator at 37° C. and a CO₂ concentration of 5%.

Series [2] has as its target T2, NTP-TALE-TERT-3-p300CD (artificial, UniProt P14727 SEQ:29-906).
T2 chain: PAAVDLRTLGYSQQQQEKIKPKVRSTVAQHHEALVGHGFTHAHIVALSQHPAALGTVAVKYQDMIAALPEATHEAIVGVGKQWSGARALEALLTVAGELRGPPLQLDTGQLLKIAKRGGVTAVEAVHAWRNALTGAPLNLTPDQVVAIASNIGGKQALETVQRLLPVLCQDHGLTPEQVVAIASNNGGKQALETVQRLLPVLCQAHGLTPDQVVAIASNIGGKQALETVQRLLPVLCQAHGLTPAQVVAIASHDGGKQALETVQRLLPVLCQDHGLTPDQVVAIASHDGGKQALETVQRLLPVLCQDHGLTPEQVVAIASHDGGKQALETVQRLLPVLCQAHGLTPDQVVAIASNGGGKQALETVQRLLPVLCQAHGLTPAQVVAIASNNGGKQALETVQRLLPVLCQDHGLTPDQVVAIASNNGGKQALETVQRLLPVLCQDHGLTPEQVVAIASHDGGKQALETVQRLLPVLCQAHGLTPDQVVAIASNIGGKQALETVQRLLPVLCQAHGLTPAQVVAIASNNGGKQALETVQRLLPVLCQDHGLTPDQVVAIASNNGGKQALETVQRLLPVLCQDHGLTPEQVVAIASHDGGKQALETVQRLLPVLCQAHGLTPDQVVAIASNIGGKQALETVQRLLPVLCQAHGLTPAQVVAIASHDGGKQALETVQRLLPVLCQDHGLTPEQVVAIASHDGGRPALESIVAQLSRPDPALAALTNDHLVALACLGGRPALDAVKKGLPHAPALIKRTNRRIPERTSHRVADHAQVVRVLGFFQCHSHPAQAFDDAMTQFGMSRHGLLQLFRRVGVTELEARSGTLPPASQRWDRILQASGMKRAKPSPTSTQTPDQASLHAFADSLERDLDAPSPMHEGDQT
The method, then:
as §1, §2

Series [3] has as its target T3, NTP-TALE-TERT-2-p300CD (artificial, UniProt P14727 SEQ:29-906).
T3 chain: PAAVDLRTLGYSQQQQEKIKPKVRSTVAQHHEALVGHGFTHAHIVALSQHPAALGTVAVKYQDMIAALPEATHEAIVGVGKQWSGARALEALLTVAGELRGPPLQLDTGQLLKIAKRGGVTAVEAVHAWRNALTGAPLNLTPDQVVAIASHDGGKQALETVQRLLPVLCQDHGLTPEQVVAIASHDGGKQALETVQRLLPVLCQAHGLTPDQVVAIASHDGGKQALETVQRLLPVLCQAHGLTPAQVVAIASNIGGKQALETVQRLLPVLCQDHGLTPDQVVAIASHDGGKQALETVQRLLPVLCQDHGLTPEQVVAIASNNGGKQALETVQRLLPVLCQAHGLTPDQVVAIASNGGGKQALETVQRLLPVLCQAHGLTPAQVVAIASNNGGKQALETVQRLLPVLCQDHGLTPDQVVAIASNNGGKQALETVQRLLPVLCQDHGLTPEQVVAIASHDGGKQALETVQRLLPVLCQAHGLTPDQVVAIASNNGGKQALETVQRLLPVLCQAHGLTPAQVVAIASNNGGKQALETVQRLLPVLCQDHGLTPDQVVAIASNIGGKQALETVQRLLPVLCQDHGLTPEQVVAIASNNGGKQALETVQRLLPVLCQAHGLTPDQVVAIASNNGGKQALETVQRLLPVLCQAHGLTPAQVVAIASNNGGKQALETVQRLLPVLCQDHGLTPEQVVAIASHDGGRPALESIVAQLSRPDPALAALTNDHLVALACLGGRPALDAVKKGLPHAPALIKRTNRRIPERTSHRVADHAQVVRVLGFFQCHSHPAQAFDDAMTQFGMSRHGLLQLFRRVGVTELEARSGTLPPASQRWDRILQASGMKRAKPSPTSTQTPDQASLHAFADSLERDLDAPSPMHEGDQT
The procedure:
as §1, §2

B1: human TERT enhancer target (AH007699.2 nt 49444-49461) (dsDNA)
DNA 1: TCAGAGGGACGCAGTCTT
DNA 2: AAGACTGCGTCCCTCTGA
Take B1: in series [1], the activity is ~17 fold TERT mRNA.

B2: human TERT enhancer target (AH007699.2 nt 6501-6518) (dsDNA)
DNA 1: TAGACCCTGGCAGGCACT
DNA 2: AGTGCCTGCCAGGGTCTA
For the molecule B2, the activity in series [2] was ~2 fold TERT mRNA.

B3: human TERT promoter target (AH007699.2 nt 11029-11046) (dsDNA)
DNA 1: CCCCACGTGGCGGAGGGA
DNA 2: TCCCTCCGCCACGTGGGG
As for B3, the activity in series [3] was ~3.5 fold TERT mRNA.
